Results on 3 molecules are retold here after paper doi:10.1101/2024.07.24.604550 (bioRxiv, 2024).

For data set [1], the target named is T1, GST-ECT1 (Arabidopsis, UniProt Q3MK94 1-428).
T1 sequence (looked up): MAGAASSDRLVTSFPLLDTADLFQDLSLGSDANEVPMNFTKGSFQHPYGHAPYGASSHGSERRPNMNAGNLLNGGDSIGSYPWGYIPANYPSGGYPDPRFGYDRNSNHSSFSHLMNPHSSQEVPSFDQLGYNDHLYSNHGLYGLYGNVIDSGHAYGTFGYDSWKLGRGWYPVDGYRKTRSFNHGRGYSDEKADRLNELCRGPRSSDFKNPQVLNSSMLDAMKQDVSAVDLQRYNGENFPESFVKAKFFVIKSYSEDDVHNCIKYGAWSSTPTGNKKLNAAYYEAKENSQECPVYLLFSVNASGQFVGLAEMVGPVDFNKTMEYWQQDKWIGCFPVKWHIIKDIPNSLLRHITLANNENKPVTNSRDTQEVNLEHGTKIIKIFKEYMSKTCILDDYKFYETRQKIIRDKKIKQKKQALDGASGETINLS
Kind of data set: pull-down.

For data set [2], the target named is T2, GST-ECT1 (Arabidopsis thaliana (Col-0), UniProt Q3MK94 1-428).
T2 sequence: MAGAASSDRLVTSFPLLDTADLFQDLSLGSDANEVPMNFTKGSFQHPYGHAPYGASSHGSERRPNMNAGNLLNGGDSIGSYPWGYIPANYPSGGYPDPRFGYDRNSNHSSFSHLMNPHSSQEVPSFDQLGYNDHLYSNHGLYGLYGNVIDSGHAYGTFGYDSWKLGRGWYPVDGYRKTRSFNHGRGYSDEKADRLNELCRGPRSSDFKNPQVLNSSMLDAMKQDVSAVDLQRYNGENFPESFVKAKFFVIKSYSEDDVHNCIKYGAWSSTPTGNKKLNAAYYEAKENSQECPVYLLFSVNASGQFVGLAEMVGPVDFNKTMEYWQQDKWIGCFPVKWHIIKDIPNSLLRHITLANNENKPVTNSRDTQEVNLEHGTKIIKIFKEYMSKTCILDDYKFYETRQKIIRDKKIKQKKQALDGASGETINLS
In words: EMSA. (In EMSA bound probe runs differently from free probe, usually more slowly.)

B1: MBP-ECT1 (natural protein, Arabidopsis, UniProt Q3MK94 1-428, looked up)
chain: MAGAASSDRLVTSFPLLDTADLFQDLSLGSDANEVPMNFTKGSFQHPYGHAPYGASSHGSERRPNMNAGNLLNGGDSIGSYPWGYIPANYPSGGYPDPRFGYDRNSNHSSFSHLMNPHSSQEVPSFDQLGYNDHLYSNHGLYGLYGNVIDSGHAYGTFGYDSWKLGRGWYPVDGYRKTRSFNHGRGYSDEKADRLNELCRGPRSSDFKNPQVLNSSMLDAMKQDVSAVDLQRYNGENFPESFVKAKFFVIKSYSEDDVHNCIKYGAWSSTPTGNKKLNAAYYEAKENSQECPVYLLFSVNASGQFVGLAEMVGPVDFNKTMEYWQQDKWIGCFPVKWHIIKDIPNSLLRHITLANNENKPVTNSRDTQEVNLEHGTKIIKIFKEYMSKTCILDDYKFYETRQKIIRDKKIKQKKQALDGASGETINLS
Turning to B1, the binding result in the data set with GST-ECT1 [1] is given as “binds”.

On to UCUUUUGUAAGACUUGUACUCUUUA (ssRNA, m6A at position 9) [UGUm6AA RNA], for which, in the data set with GST-ECT1 [2], the binding result was “binds”.

UCUUUUGUAAGACUUGUACUCUUUA (ssRNA) [UGUAA RNA (unmodified)]: the binding result in the data set with GST-ECT1 [2] is “no binding”.
